From the DeepSol protein solubility set

Assay: soluble on expression in E. coli; label from the status in PepcDB or PDB records

Soluble on expression in E. coli, soluble:
MIESKTYAVLGLGNGGHAFAAYLALKGQSVLAWDIDAQRIKEIQDRGAIIAEGPGLAGTAHPDLLTSDIGLAVKDADVILIVVPAIHHASIAANIASYISEGQLIILNPGATGGALEFRKILRENGAPEVTIGETSSMLFTCRSERPGQVTVNAIKGAMDFACLPAAKAGWALEQIGSVLPQYVAVENVLHTSLTNVNAVMHPLPTLLNAARCESGTPFQYYLEGITPSVGSLAEKVDAERIAIAKAFDLNVPSVCEWYKESYGQSPATIYEAVQGNPAYRGIAGPINLNTRYFFEDVSTGLVPLSELGRAVNVPTPLIDAVLDLISSLIDTDFRKEGRTLEKLGLSGLTAAGIRSAVE
AIASDKYIGDSHLEETGEEKQDSQEKEAVTPEKAEEQKLKAKYPNLGQKPGGSDFLMKRLQKGQKYFDSGDYNMAKAKIKNKQLPCAGPDKNLVTGDHIPTPQDLPQRKSSLVTSKLAGHVEDLHHV
MGHHHHHHSHEEEGSPGGREDGFTAEHLAAEAMAADMDPWLVFDARTTPATELDAWLAKYPPSQVTRYGDPGSPNSEPVGWIAVYGQGYSPNSGDVQGLQAAWEALQTSGRPITPGTLRQLAITHHVLSGKWLMHLAPGFKLDHAWAGIARAVVEGRLQVAKVSPRAKEGGRQVICVYTDDFTDRLGVLEADSAIRAAGIKCLLTYKPDVYTYLGIYRANRWHLCPTLYESRFQLGGSARGSRVLDRANNVELT
MKYDTSELCDIYQEDVNVVEPLFSNFGGRASFGGQIITVKCFEDNGLLYDLLEQNGRGRVLVVDGGGSVRRALVDAELARLAVQNEWEGLVIYGAVRQVDDLEELDIGIQAMAAIPVGAAGEGIGESDVRVNFGGVTFFSGDHLYADNTGIILSEDPLDIE
MSLKQKLIKKAQELRQHGFTTGEIADELNVSMDTARWLTLQKPAEEKPEAPVDFFINWKSLGGNSTRLRYVSGALSDMALSHGEAEVILGIAVSGIPFATMMADFLEDMSGVETSLAVYHPHKHRKEKDDGEGAISTNFGSVEGKKVVIVDDVITSGKTVKEVIHAVKDHGGEPIAVTVLIDKSGLSEIEEVPIESLIKVGRLEGHHHHHH
MSLQENISVTDSYSTGNAAQAMLEKLLQIYDVKMLVAQLNGVGENHWSAAILKRALANDSAWHRLSEKEFAHLQTLLPKPPEHHPHYAFRFIDLFAGIGGIRRGFESIGGQCVFTSEWNKHAVRTYKANHYCDPATHHFNEDIRDITLSHQEGVSDEAAAEHIRQHIPEHDVLLAGFPCQPFSLAGVSKKNSLGRAHGFACDTQGTLFFDVVRIIDARRPAMFVLENVKNLKSHDKGKTFRIIMQTLDELGYDVADAEDNGPDDPKIIDGKHFLPQHRERIVLVGFRRDLNLKADFTLRDISECFPAQRVTLAQLLDPMVEAKYILTPVLWKYLYRYAKKHQARGNGFGYGMVYPNNPQSVTRTLSARYYKDGAEILIDRGWDMATGEKDFDDPLNQQHRPRRLTPRECARLMGFEAPGEAKFRIPVSDTQAYRQFGNSVVVPVFAAVAKLLEPKIKQAVALRQQEAQHGRRSREGHHHHHH

Soluble on expression in E. coli, not soluble:
MGSDKIHHHHHHMNDLLPFLAQVSLFKGIETEELPKMLNRLNARKVSYKKNDVILREGQSVHSVGIMLSGKVKVVKEDFKGNTNVMTFIEPGAMFAEAYACTQTANLPFTVLSVMETKILWIDYRKIISTCTSACESHEKLIENMMKALASKSILLNQKIEHISKRTTQEKLLTYLFDQSKKSGSNEFEIPFSRQELADYLCVDRSAMSNELCKLQREGVLNFHLNHFKLSKSSSEAQL
MGHHHHHHSHMTSGPGGRSAAAGGRKENHQWYVCNREKLCESLQAVFVQSYLDQGTQIFLNNSIEKSGWLFIQLYHSFVSSVFSLFMSRTSINGLLGRGSMFVFSPDQFQRLLKINPDWKTHRLLDLGAGDGEVTKIMSPHFEEIYATELSETMIWQLQKKKYRVLGINEWQNTGFQYDVISCLNLLDRCDQPLTLLKDIRSVLEPTRGRVILALVLPFHPYVENGGKWEKPSEILEIKGQNWEEQVNSLPEVFRKAGFVIEAFTRLPYLCEGDMYNDYYVLDDAVFVLKPV
MGSDKIHHHHHHAIRANVMASNVDSLYSKVDTLSEQSKKNNVVREEFDYSALSFYVENFAKEYLNYNSKASDEAKKARIDRLSKYLSLDVKDVDETENLQGNVLRTFKNTSLSRIEKMEDCYLVYLNVNYELEKDKKTENVTQNMVLPIQVKDNLFSIVGRPYFVASSLPQGKTVSLKQTENSIDVDGKEKQSIEKFLKMFFTKYSVGNKQELMLLMKNPTTTAGQDSFVSIDSGDMKFFDTKQKGVTGVQVSVTFSDKTTKLTHTEDFSLWLSKTENSYFINTMKHYFTEKEGND
MGSNELFTRSVYMQSSVYSNNSKSSTSSSSSNSIPTQSAPAMNAASSPSKEPAKQEKEDDKKEVEEKKEIEKSVEAKVEGKVKAKVESTQNTDNSQELKAPEEKPKKKKKKKSNLIVSASVEKLSIVPEKEDFSILEKKLREFNFYHGFLPREDLHTTLHNPGDFLLRVSEVVEGEHKVNREVILSLIPVSTVSKDEEDRKKVRNVVIKRVTNLFFCEITRTFESISDLVTYYTKNPGGCASGTFQLKHPILQQSWEFMHSDVTVGKVLGEGAFGKVCSGTLKLKDGTNVDVAIKMTKVSAFLSKMKIKEMMNEARFIRNFNHKNVVRLYGVAHHEQPLYILLELVKGGSLQDHMKKEKGAVSIVEKIKFCSGAGRGIEYLHQNNCIHRDIAARNCLLHEKEVKITDFGLSRTGPVYKMKTACKLPVKWLAPETLSTLSFSFATDTYSWGVTCYEVFADGVEPFFGIQNSVVKTDILANKFLQMPPTTPESIKKYMEASIFVEGSRRATMTSAIAEFEKIKSALERPPSDMLSVGAGAKKVMKLLKRNKQEKYSKGD
MAHHHHHHMPKEVQEKDEFFYFFNHFCFYIINETKQYALSYKMNFAFYLPYGSLGVDVLKNVFDYLHYLDVPTILDIKMNDIGNTVKHYSKFIFHYLRSDSCTANIYMGTHMLRDICLDEECKRHYSTFVLIKTTNPDSHIFQNRLSLDGKEAYVVIADEAQKMAKQLHLEENGEFVGFVVGANCYDEMKKIRELFPDCYILAPGVGAQKGDLRKTLCNGYSKNYERLLINVGRAITKSGNPQQAAREYYHQIKEILAEL
MDGCMPGISATTLLKQQNIPESFKFYFKRRFAPLVTDGPHLNELVRPRLKIAIVTETWPPEINGVAMSLLQLCKGLQEQGHKILLVRPQQKRECYEFSPHKECLVHAQRIPKYPELQFGWPQYLKVAKAFEDFTPDVVHVVTEGPLGLTALYAARAKQIPVSSGFHSPFQDFSRFFDLAFLLKPIQGYLRWFHNHTQITCVPSQDTEKALRAFGVTCPLSIVGRGVDPKFFSPDFRNEALRERWKAASDTVVMLYVGRLSPEKEIHILIQNYAAMRRVEPRNVKLVIVGSGPDRARLEALDETQEVIFMGSLSGKNLAEAYASADVFVFASQVETFGNVVLEAMASGLPVVAYDYACAHQYIQHGVTGWLSPLGQPATFIQAMRQLSGVKQLRQMGQRARQCVEHDGWQYPVQQMEQALYRVVKEPYMKLEHHHHHH
MGSDKIHHHHHHMFVCEVRFECFADTTISAAQHAINHLLEAWRANGQILGREFAVSFHDGEFKARLMLPAQDSLANRHNSPWAKAALKGLTDAKILPPREKLLGQDINANESATHTPEWQLLYTSYVHMCSPVRSGDNLLPIPLYKLPATFNGDHKQLIRWQTEWQACDELQMASATKAEFAALDELCNVGSDLFRRGWDLRGRIEYLTKIPTYYYLYRVGGSSLQDELARPCPRCGSTGWRLDEPLLDMFHFRCEPCRIVSNLSWDYQ
MQSIGQVLTKASERLEERLAAVLAQYTPAYFRERIPELNELDATDEMIQKAIIQLMDRAKQIEECRGCTGFANCRRPPGQEGMVMHLTVENGHISSLHSMCDQFHAYHQEQRWQRLLALSGKAANDKNFTFDNFPDAQKKRHRKLCGYIYQFAQQFEPGGSDKGVYIYGPPGTGKTHLLLAMVNRLEERRVPVIFIRTDAIFRRMRGMLSAKESLDSLIEAYCTTPVLVIDEFAQEAGTEFTIDVMFEVVNARFANSLPTFATSNYAPDQVYEKAMRKHRLEEKVEAIRSRLNQMMKHAFMDGEDGRKKDRETF
MSEIVIRHAETRDYEAIRQIHAQPEVYCNTLQVPHPSDHMWQERLADRPGIKQLVACIDGDVVGHLTIDVQQRPRRSHVADFGICVDSRWKNRGVASALMREMIEMCDNWLRVDRIELTVFVDNAPAIKVYKKFGFEIEGTGKKYALRNGEYVDAYYMARVK
